Consider one substance from IntAct's records for PubMed 19402751.

This assay has as its target T1, tim_drome tim (UniProt P49021).
T1 sequence: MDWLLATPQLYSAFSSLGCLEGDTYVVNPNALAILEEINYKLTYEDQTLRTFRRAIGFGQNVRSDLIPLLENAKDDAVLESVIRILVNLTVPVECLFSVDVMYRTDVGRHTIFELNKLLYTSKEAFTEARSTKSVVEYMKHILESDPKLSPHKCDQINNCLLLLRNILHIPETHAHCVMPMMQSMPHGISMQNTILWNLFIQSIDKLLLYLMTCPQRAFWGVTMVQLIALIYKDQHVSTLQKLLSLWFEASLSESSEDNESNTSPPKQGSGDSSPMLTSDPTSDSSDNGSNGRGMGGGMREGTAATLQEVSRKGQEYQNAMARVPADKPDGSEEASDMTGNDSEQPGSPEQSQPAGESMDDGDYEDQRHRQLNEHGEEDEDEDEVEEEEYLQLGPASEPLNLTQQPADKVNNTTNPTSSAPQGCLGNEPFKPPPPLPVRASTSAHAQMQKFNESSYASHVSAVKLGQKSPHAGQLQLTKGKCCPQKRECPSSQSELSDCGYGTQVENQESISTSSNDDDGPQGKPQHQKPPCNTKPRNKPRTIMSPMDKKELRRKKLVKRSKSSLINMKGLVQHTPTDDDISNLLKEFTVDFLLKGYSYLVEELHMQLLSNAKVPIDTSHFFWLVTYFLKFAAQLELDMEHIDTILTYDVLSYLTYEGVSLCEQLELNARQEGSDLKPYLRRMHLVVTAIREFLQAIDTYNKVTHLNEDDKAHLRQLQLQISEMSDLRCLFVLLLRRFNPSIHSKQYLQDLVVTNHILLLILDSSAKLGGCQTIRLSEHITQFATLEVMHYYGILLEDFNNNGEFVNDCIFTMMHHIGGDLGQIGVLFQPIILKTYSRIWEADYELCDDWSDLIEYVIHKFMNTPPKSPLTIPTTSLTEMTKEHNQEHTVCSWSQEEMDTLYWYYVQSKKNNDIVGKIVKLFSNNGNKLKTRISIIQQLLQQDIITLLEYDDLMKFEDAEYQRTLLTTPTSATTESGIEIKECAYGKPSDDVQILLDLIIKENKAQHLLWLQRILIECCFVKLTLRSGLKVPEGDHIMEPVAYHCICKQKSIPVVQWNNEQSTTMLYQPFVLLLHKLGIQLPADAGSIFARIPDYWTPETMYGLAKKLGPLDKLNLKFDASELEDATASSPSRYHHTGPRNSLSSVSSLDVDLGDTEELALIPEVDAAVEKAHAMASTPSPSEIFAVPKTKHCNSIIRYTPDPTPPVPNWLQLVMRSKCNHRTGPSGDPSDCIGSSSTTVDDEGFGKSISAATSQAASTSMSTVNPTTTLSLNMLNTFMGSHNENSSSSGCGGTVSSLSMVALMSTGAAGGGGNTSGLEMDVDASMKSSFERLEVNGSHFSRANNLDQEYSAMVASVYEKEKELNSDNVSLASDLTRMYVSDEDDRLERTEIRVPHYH

For the substance “Period circadian protein (Drosophila melanogaster (Fruit fly)) (from UniProt P07663-1) E474R;H492S;R494D”, the “effect of a mutation on the interaction” value is “disrupting interaction”.
